# Values joined by “and” are separate entries in the source; they are usually repeats but may differ in a detail not shown here. Equal values may be shown once.
# T1: Repulsive Guidence Molecule A (UniProt Q96B86 48-422, limits assumed)
# T1 construct: Bought reagent for the ELISA; also called RGM-A; RGMa
# T1 sequence (looked up): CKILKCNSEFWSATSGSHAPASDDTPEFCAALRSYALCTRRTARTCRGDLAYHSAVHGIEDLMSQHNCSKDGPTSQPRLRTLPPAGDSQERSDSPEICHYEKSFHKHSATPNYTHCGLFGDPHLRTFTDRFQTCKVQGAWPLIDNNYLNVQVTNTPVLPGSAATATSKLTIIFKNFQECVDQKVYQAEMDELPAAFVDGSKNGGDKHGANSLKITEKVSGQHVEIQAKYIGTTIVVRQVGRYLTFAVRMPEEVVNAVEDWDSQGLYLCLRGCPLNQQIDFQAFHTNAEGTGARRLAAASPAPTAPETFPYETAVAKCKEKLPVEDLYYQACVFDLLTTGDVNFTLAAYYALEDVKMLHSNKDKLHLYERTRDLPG
# B1: DVD230 (bispecific antibody, human IgG1, kappa)
# heavy: not shown
# light: QSVLTQPPSVSAAPGQKVTISCSGSSSNIENNHVSWYQQLPGTAPKLLIYDNNKRPSGIPDRFSGSKSGTSATLGITGLQTGDEADYYCETWDTSLSAGRVFGGGTKLTVLGQPKAAPDVVMTQSPLSLPVTPGEPASISCKSSQSLLDSDGKTYLNWLLQKPGQSPQRLIYLVSKLDSGVPDRFSGSGSGTDFTLKISRVEAEDVGVYYCWQGTHFPRTFGQGTKVEIKRTVAAPSVFIFPPSDEQLKSGTASVVCLLNNFYPREAKVQWKVDNALQSGNSQESVTEQDSKDSTYSLSSTLTLSKADYEKHKVYACEVTHQGLSSPVTKSFNRGEC
# notes: DVD-Ig; also called VD230H/VD230L
# B2: AB059 (antibody, human IgG1, kappa, V domains shown)
# VH: EVQLVESGGGLVQPGSSLKLSCVASGFTFSNYGMNWIRQAPKKGLEWIGMIYYDSSEKHYADSVKGRFTISRDNSKNTLYLEMNSLRSEDTAIYYCAKGTTPDYWGQGVMVTVSS
# VL: DVVLTQTPVSLSVTLGDQASMSCRSSQSLEYSDGYTFLEWFLQKPGQSPQLLIYEVSNRFSGVPDRFIGSGSGTDFTLKISRVEPEDLGVYYCFQATHDPLTFGSGTKLEIKR
# notes: also called RGMa parent antibody; RGMA parent antibody
# B3: DVD232 (bispecific antibody, human IgG1, kappa)
# heavy: not shown
# light: EIVMTQSPATLSVSPGERATLSCRASESISSNLAWYQQKPGQAPRLFIYTASTRATDIPARFSGSGSGTEFTLTISSLQSEDFAVYYCQQYNNWPSITFGQGTRLEIKRTVAAPDVVMTQSPLSLPVTPGEPASISCKSSQSLLDSDGKTYLNWLLQKPGQSPQRLIYLVSKLDSGVPDRFSGSGSGTDFTLKISRVEAEDVGVYYCWQGTHFPRTFGQGTKVEIKRTVAAPSVFIFPPSDEQLKSGTASVVCLLNNFYPREAKVQWKVDNALQSGNSQESVTEQDSKDSTYSLSSTLTLSKADYEKHKVYACEVTHQGLSSPVTKSFNRGEC
# notes: DVD-Ig; also called VD232H/VD232L
# B4: AB060 (antibody, human IgG1, kappa, V domains shown)
# VH: QIQLVQSGPELKKPGETVKISCKASGYTFTNFGMNWVKQAPGKGLKWMGYINTNTGESIYSEEFKGRFAFSLETSASTAYLQINNLKNEDTATYFCARSRMVTAYGMDYWGQGTSVTVSS
# VL: DIVMTQSQKFMSTSVGDRVSITCKASQNVGTAVAWYQQRPGQSPKLLIFSASNRYTGVPDRFTGSGSGTDFTLTLSNMQPEDLADYFCQQYSSYPLTFGVGTKLELKR
# B5: DVD293 (bispecific antibody, human IgG1, kappa)
# heavy: not shown
# light: DIVMTQSQKFMSTSVGDRVSITCKASQNVGTAVAWYQQRPGQSPKLLIFSASNRYTGVPDRFTGSGSGTDFTLTLSNMQPEDLADYFCQQYSSYPLTFGVGTKLELKRTVAAPDVVMTQSPLSLPVTPGEPASISCKSSQSLLDSDGKTYLNWLLQKPGQSPQRLIYLVSKLDSGVPDRFSGSGSGTDFTLKISRVEAEDVGVYYCWQGTHFPRTFGQGTKVEIKRTVAAPSVFIFPPSDEQLKSGTASVVCLLNNFYPREAKVQWKVDNALQSGNSQESVTEQDSKDSTYSLSSTLTLSKADYEKHKVYACEVTHQGLSSPVTKSFNRGEC
# notes: DVD-Ig; also called VD293H/VD293L
# B6: DVD294 (bispecific antibody, human IgG1, kappa)
# heavy: not shown
# light: DVVMTQSPLSLPVTPGEPASISCKSSQSLLDSDGKTYLNWLLQKPGQSPQRLIYLVSKLDSGVPDRFSGSGSGTDFTLKISRVEAEDVGVYYCWQGTHFPRTFGQGTKVEIKRTVAAPDIVMTQSQKFMSTSVGDRVSITCKASQNVGTAVAWYQQRPGQSPKLLIFSASNRYTGVPDRFTGSGSGTDFTLTLSNMQPEDLADYFCQQYSSYPLTFGVGTKLELKRTVAAPSVFIFPPSDEQLKSGTASVVCLLNNFYPREAKVQWKVDNALQSGNSQESVTEQDSKDSTYSLSSTLTLSKADYEKHKVYACEVTHQGLSSPVTKSFNRGEC
# notes: DVD-Ig; also called VD294H/VD294L
# B7: AB032 (antibody, human IgG1, kappa, V domains shown)
# VH: QVQLVESGGGVVQPGRSLRLSCAASGFTFSVYGMNWVRQAPGKGLEWVAIIWYDGDNQYYADSVKGRFTISRDNSKNTLYLQMNGLRAEDTAVYYCARDLRTGPFDYWGQGTLVTVSS
# VL: EIVLTQSPDFQSVTPKEKVTITCRASQSIGSSLHWYQQKPDQSPKLLIKYASQSFSGVPSRFSGSGSGTDFTLTINSLEAEDAAAYYCHQSSSLPFTFGPGTKVDIKR
# notes: also called IL-1β parent antibody
# B8: DVD233 (bispecific antibody, human IgG1, kappa)
# heavy: not shown
# light: DVVMTQSPLSLPVTPGEPASISCKSSQSLLDSDGKTYLNWLLQKPGQSPQRLIYLVSKLDSGVPDRFSGSGSGTDFTLKISRVEAEDVGVYYCWQGTHFPRTFGQGTKVEIKRTVAAPQIVLIQSPAIMSASPGEKVTMTCSASSSVSYMYWYQQKPGSSPRLLIYDTSNLASGVPVRFSGSGSGTSYSLTISRMEAEDAATYYCQQWSGYPYTFGGGTKLEIKRTVAAPSVFIFPPSDEQLKSGTASVVCLLNNFYPREAKVQWKVDNALQSGNSQESVTEQDSKDSTYSLSSTLTLSKADYEKHKVYACEVTHQGLSSPVTKSFNRGEC
# notes: DVD-Ig; also called VD233H/VD233L
# Key:
# [1] = target: T2, IGF-II (UniProt P01344 25-91); experiment: direct bind ELISA, antigen on plate; N-terminal VD
# T2 construct: Bought reagent; also called IGF2; IGF-2
# Description: (§1) Enzyme Linked Immunosorbent Assays to screen for antibodies that bind a desired target antigen were performed as follows. High bind ELISA plates (Corning Costar #3369, Acton, Mass.) were coated with 100 μL/well of 10 μg/ml of desired target antigen (R&D Systems, Minneapolis, Minn.) or desired target antigen extra-cellular domain/FC fusion protein (R&D Systems, Minneapolis, Minn.) or monoclonal mouse anti-polyHistidine antibody (R&D Systems # MAB050, Minneapolis, Minn.) in phosphate buffered saline (10×PBS, Abbott Bioresearch Center, Media Prep# MPS-073, Worcester, Mass.) overnight at 4° C. Plates were washed four times with PBS containing 0.02% Tween 20. Plates were blocked by the addition of 300 μL/well blocking solution (non-fat dry milk powder, various retail suppliers, diluted to 2% in PBS) for 1/2 hour at room temperature. Plates were washed four times after blocking with PBS containing 0.02% Tween 20.
# (§2) One hundred microliters of antibody or DVD-Ig preparations diluted in blocking solution as described above was added to the desired target antigen plate or desired target antigen/FC fusion plate or the anti-polyHistidine antibody/His tagged desired target antigen plate prepared as described above and incubated for 1 hour at room temperature. Wells were washed four times with PBS containing 0.02% Tween 20.
# (§3) One hundred microliters of 10 ng/mL goat anti-human IgG-FC specific HRP conjugated antibody (Southern Biotech #2040-05, Birmingham, Ala.) was added to each well of the desired target antigen plate or anti-polyHistidine antibody/Histidine tagged desired target antigen plate. Alternatively, one hundred microliters of 10 ng/mL goat anti-human IgG-kappa light chain specific HRP conjugated antibody (Southern Biotech #2060-05 Birmingham, Ala.) was added to each well of the desired target antigen/FC fusion plate and incubated for 1 hour at room temperature. Plates were washed 4 times with PBS containing 0.02% Tween 20.
# [2] = target: T3, IGF-I (UniProt P05019 49-118); experiment: direct bind ELISA, antigen on plate; N-terminal VD
# T3 construct: Bought reagent; also called IGF1; IGF-1
# Description: as §1, §2, §3
# [3] = target: T4, Aβ1-42 (UniProt P05067 672-713); experiment: Aβ 1-42 ELISA, peptide on plate; C-terminal VD
# T4 construct: domain: Aβ1-42; Aβ 1-42 is a part of it; also called A beta
# Description: (§4) ELISA assays were performed to screen for antibodies that bind a desired target antigen as follows. Maxisorb NUNC Immuno plates were coated with 100 μL/well of 1 μg/ml of Aβ1-42 diluted in coating buffer overnight at 6° C. Plates were washed three times with PBS containing 0.02% Tween 20. Blocking solution was prepared by dissolving the blocking reagent for ELISA (Roche) in 100 mL water and then diluted further 1:10 prior to use. Plates were blocked by the addition of 265 μL/well blocking solution for 2 hours at room temperature. Plates were washed three times after blocking with PBS containing 0.02% Tween 20.
# (§5) Antibody or DVD-Igs were diluted to 100 ng/μL in PBST+0.5% BSA and serially diluted 1:3. One hundred microliters of antibody or DVD-Ig preparations was added to the plate and incubated for 2 hour at room temperature. Wells were washed three times with PBS containing 0.02% Tween 20.
# (§6) One hundred microliters of TMB solution was added to each well and incubated for 10 minutes. TMB solution was prepared by mixing 20 mL 100 mM natrium-acetate pH4.9 with 200 μL TMB solution (Roche #92817060) and 29.5 μL 3% H₂O₂. The reaction was stopped by the addition of 50 μL 1N sulphuric acid. Plates were read spectrophotometrically at a wavelength of 450 nm.
# [4] = target: T1, Repulsive Guidence Molecule A; experiment: direct bind ELISA, antigen on plate; parent antibody
# Description: as §1, §2, §3
# [5] = target: T1, Repulsive Guidence Molecule A; experiment: SPR (Biacore), antibody captured; parent antibody
# Description: The BIACORE assay (Biacore, Inc, Piscataway, N.J.) determines the affinity of antibodies or DVD-Ig with kinetic measurements of on-rate and off-rate constants. Binding of antibodies or DVD-Ig to a target antigen (for example, a purified recombinant target antigen) is determined by surface plasmon resonance-based measurements with a Biacore® 1000 or 3000 instrument (Biacore® AB, Uppsala, Sweden) using running HBS-EP (10 mM HEPES [pH 7.4], 150 mM NaCl, 3 mM EDTA, and 0.005% surfactant P20) at 25° C. All chemicals are obtained from Biacore® AB (Uppsala, Sweden) or otherwise from a different source as described in the text. For example, approximately 5000 RU of goat anti-mouse IgG, (Fcγ), fragment specific polyclonal antibody (Pierce Biotechnology Inc, Rockford, Ill.) diluted in 10 mM sodium acetate (pH 4.5) is directly immobilized across a CMS research grade biosensor chip using a standard amine coupling kit according to manufacturer's instructions and procedures at 25 μg/ml. Unreacted moieties on the biosensor surface are blocked with ethanolamine. Modified carboxymethyl dextran surface in flowcell 2 and 4 is used as a reaction surface. Unmodified carboxymethyl dextran without goat anti-mouse IgG in flow cell 1 and 3 is used as the reference surface. For kinetic analysis, rate equations derived from the 1:1 Langmuir binding model are fitted simultaneously to association and dissociation phases of all eight injections (using global fit analysis) with the use of Biaevaluation 4.0.1 software. Purified antibodies or DVD-Ig are diluted in HEPES-buffered saline for capture across goat anti-mouse IgG specific reaction surfaces. Antibodies or DVD-Ig to be captured as a ligand (25 μg/ml) are injected over reaction matrices at a flow rate of 5 μl/min. […] The equilibrium dissociation constant (M) of the reaction between antibodies or DVD-Igs and the target antigen is then calculated from the kinetic rate constants by the following formula: KD=koff/kₒₙ. Binding is recorded as a function of time and kinetic rate constants are calculated.
# [6] = target: T5, IL-18 (UniProt Q14116 37-193, limits assumed); experiment: direct bind ELISA, antigen on plate; N-terminal VD
# T5 construct: Bought reagent
# Description: as §1, §2, §3
# [7] = target: T6, RAGE/FC Chimera (UniProt Q15109 23-342); experiment: direct bind ELISA, antigen on plate; parent antibody
# T6 construct: extracellular domain; Bought reagent; not shown: Fc region of the bought chimera
# Description: as §1, §2, §3
# [8] = target: T6, RAGE/FC Chimera; experiment: direct bind ELISA, antigen on plate; N-terminal VD
# Description: as §1, §2, §3
# [9] = target: T4, Aβ1-42; experiment: Aβ 1-42 ELISA, peptide on plate; N-terminal VD
# Description: as §4, §5, §6
# [10] = target: T6, RAGE/FC Chimera; experiment: direct bind ELISA, antigen on plate; C-terminal VD
# Description: as §1, §2, §3
# [11] = target: T7, Recombinant Human IL-1β (human, UniProt P01584 117-269); experiment: direct bind ELISA, antigen on plate; parent antibody
# T7 construct: Bought reagent; also called IL-1B
# Description: as §1, §2, §3
# T6 sequence (Q15109 23-342, change not shown): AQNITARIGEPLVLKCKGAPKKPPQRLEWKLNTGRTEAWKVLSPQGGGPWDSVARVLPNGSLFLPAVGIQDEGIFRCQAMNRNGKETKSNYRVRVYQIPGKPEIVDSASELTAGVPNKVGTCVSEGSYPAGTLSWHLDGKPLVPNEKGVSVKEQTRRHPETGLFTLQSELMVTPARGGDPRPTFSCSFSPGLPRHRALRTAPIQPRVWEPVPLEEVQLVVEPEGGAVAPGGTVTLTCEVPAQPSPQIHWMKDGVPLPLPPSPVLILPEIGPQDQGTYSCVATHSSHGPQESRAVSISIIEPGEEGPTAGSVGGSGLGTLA
binder,measurement,setting,value
B1,EC50,[1],2.44 nM
same,EC50,[2],4.84 nM
same,EC50,[3],0.039 nM
B2,EC50,[4],0.13 nM
same,Kd,[5],0.64 nM
same,koff,[5],0.000609 s⁻¹
same,kon,[5],952000 M⁻¹ s⁻¹
B3,EC50,[6],0.68 nM
same,EC50,[3],0.048 nM
B4,EC50,[7],1.69 nM and 0.64 nM
B5,EC50,[8],7.32 nM
same,EC50,[3],0.048 nM
B6,EC50,[9],0.014 nM
same,EC50,[10],1.53 nM
B7,EC50,[11],5.27 nM
B8,EC50,[9],0.013 nM
